Article PMC8809517, “Cofactor-independent RNA editing by a synthetic S-type PPR protein”

T1: GFP-9S library array, motif 4 ND N98A;D124V (synthetic construct, N98A;D124V)
T1 chain: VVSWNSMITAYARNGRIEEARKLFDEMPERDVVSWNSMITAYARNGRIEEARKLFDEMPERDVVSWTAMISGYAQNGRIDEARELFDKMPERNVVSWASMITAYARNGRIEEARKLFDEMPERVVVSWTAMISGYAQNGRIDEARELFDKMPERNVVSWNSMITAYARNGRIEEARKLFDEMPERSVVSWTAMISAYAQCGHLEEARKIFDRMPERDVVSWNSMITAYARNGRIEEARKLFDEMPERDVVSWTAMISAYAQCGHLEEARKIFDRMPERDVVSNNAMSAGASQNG

T2: GFP-9S library array, motif 4 ND N98K;D124L (synthetic construct, N98K;D124L)
T2 chain: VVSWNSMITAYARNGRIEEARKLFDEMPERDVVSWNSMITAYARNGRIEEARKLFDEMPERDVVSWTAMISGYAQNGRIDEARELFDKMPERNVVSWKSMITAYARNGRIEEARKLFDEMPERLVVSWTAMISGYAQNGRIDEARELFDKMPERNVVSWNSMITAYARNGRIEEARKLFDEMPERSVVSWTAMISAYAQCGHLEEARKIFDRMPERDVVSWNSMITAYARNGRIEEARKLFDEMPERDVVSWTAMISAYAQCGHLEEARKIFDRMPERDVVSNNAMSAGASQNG

T3: GFP-9S library array, motif 4 ND N98G;D124S (synthetic construct, N98G;D124S)
T3 chain: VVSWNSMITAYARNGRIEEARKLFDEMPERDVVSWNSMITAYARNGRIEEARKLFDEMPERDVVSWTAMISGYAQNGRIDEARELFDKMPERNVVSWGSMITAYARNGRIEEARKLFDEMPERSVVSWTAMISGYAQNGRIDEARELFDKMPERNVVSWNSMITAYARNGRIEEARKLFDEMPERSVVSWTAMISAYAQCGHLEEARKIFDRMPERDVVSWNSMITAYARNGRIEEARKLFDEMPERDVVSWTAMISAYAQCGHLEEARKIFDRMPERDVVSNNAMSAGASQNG

T4: GFP-9S library array, motif 4 ND N98S;D124G (synthetic construct, N98S;D124G)
T4 chain: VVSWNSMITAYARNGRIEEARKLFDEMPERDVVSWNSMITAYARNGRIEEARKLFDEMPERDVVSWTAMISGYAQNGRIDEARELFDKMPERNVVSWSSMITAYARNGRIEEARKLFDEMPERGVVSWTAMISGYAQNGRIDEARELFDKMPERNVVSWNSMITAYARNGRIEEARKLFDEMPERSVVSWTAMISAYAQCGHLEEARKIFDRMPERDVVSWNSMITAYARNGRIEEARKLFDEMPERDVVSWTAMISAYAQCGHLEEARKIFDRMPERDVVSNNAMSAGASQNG

T5: GFP-9S library array, motif 4 ND N98W;D124M (synthetic construct, N98W;D124M)
T5 chain: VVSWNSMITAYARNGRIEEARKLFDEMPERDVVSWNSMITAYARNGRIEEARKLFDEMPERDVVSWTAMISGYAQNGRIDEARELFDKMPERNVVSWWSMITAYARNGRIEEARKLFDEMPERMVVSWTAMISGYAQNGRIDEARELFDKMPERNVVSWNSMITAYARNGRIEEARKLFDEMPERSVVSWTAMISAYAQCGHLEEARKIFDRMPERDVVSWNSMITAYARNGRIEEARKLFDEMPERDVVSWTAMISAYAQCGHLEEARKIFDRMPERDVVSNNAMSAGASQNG


Columns and labels:
Assay in all cases: high-throughput RNA pulldown from lysate on Ni-NTA beads; HRP: 50 mM Tris pH 8, 150 mM NaCl, 1 mM beta-mercaptoethanol, 50 ug/ml BSA, 3 ug/ml yeast RNA, 0.5% heparin; ITC and FP: Tris pH 8, 200 mM KCl, 5% glycerol; MST: 50 mM Tris pH 8, 200 mM NaCl, 1 mM DTT, BSA, heparin, 0.05% Tween 20
Conditions in all cases: tags: N-terminal His-eGFP
[1] = target: T1, GFP-9S library array, motif 4 ND …
[2] = target: T2, GFP-9S library array, motif 4 ND …
[3] = target: T3, GFP-9S library array, motif 4 ND …
[4] = target: T4, GFP-9S library array, motif 4 ND …
[5] = target: T5, GFP-9S library array, motif 4 ND …

| Binder | Kd ([1]; label: 5' Cy5) [nM] | Kd ([2]; label: 5' Cy5) [nM] | Kd ([3]; label: 5' Cy5) [nM] | Kd ([4]; label: 5' Cy5) [nM] | Kd ([5]; label: 5' Cy5) [nM] | Kd ([1]; label: 5' IRDye 800CW) [nM] | Kd ([2]; label: 5' IRDye 800CW) [nM] | Kd ([3]; label: 5' IRDye 800CW) [nM] | Kd ([4]; label: 5' IRDye 800CW) [nM] | Kd ([5]; label: 5' IRDye 800CW) [nM] |
| --- | --- | --- | --- | --- | --- | --- | --- | --- | --- | --- |
| AUUAGACGUGA (ssRNA) [Cy5-rpoA-G] | 124 | 73.5 | 549 | 157 | 102 | – | – | – | – | – |
| AUUAUACGUGA (ssRNA) [IR-rpoA-U] | – | – | – | – | – | 152 | 174 | 749 | 182 | 175 |
| AUUAAACGUGA (ssRNA) [IR-rpoA-A] | – | – | – | – | – | 497 | 151 | 564 | 122 | 235 |
| AUUACACGUGA (ssRNA) [Cy5-rpoA] | 91.2 | 83.5 | 629 | 181 | 96.1 | – | – | – | – | – |
